Key:
Assay in all cases: cell-based or functional assay
[1] = target: rabbit IgG (Sigma)
[2] = target: anti-OVA mouse IgG1 (mAb, Sigma)
[3] = target: human IgG (Gammonativ, Octapharma)

half-life of injected rabbit IgG in bFcRn/mFcRn-/- mice (15 hours in FcRn-/- mice) [1]: 67 h
beta-phase half-life (hours) of injected mouse IgG in bFcRn Tg mice (line #14 homozygote), 10 µg/BWg [2]: 165 h
beta-phase half-life (hours) of injected human IgG in bFcRn Tg mice (line #14 homozygote), 10 µg/BWg [3]: 172 h
beta-phase half-life (hours) of injected human IgG in bFcRn Tg mice (line #14 homozygote), 20 µg/BWg [3]: 181 h
Substance: hybrid bFcRn α-chain / mouse β2m receptor (bovine FcRn expressed in BAC 128E04 transgenic mice) (from UniProt F6R592 35-358; P01887 21-119)
